Measured values reported in patent publication US20250333531A1 (NORDIC NANOVECTOR ASA, published 2025).

T1: human CD37 (human, UniProt P11049 1-281)
T1 construct: whole, on cells; also called CD37 antigen
T1 sequence (looked up): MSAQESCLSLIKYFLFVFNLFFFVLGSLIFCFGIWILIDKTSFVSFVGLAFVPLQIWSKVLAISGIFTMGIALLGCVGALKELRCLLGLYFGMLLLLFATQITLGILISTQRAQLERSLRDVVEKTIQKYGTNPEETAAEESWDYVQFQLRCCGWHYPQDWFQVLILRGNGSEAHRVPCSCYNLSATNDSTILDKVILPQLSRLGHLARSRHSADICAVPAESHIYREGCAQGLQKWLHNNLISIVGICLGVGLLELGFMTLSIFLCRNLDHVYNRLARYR


Legend:
human CD37 [1] = target: T1, human CD37; assay: competitive radioligand binding on Ramos cells against 177Lu-NNV009 (2.7 nM), gamma counting
Experimental: (§1) The Eppendorf LoBind tubes 1.5 mL were used to prepare dilutions (working concentrations) of Abs. As much as 0.2 mL of the cell suspension (800 000 cells/tube), after it has been cooled down for 30 min on ice, was aliquoted to glass 12×75 mm counting tubes. Each tube was pre-labeled with a code specifically determining each sample. The tubes with cells were maintained on ice for whole time course of the experiment except for the time when counted on the gamma counter. The tubes were agitated on a planetary shaker at 350 RPM, 4° C. (on ice) for 15 min. […] The tubes were placed on the planetary shaker (GL 064), on ice, and shaken for 4 hours at 350 RPM. After 3.5 hours past from the beginning of incubation, the samples were assayed on Wizard2 gamma counter using protocol “Lu-177 General” (all detectors except for the detector #3 were used). Upon completion the counting, the cells were washed with ice-cold 0.5 mL 0.5% BSAPBS three times. All the tubes were assayed on the Wizard2 gamma counter again using the same sequence and parameters as before the washing.

human CD37 [2] = target: T1, human CD37; assay: competitive radioligand binding on Ramos cells; ratio to Ki of NNV009 (assumed 2.3)
Experimental: as §1

[3] = target: T2, biotinylated soluble human FcRn (human, UniProt P55899 24-297; P61769 21-119, biotinylated); assay: ELISA: IgG coated at 1000-0.45 ng/ml, biotinylated soluble human FcRn 250 ng/ml pre-complexed with AP-streptavidin, pH 6.0, absorbance 405 nm
T2 construct: extracellular domain; Bought; Beta-2-microglobulin is not mentioned; Used as preformed complex with AP-streptavidin
T2 sequence (P55899 24-297 limits assumed, chain 1 of 2): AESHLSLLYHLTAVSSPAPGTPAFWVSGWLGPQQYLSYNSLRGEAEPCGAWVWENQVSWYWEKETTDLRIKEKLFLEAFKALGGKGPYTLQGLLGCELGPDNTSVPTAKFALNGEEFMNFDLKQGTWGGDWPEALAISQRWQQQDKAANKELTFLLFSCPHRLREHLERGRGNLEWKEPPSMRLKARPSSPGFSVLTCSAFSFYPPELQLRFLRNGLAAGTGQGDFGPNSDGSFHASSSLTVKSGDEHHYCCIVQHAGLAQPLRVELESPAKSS
T2 sequence (P61769 21-119 limits assumed, chain 2 of 2): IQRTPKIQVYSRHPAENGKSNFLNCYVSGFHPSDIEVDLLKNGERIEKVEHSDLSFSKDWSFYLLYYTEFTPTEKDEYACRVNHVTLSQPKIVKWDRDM
Experimental: (§2) Remaining surface area were blocked with PBS containing 0.05% T and 4% S for 1 h at RT. The plates were washed four times with PBS/T using a Hydrospeed™ plate washer (Tecan). […] Following washing as above with PBS/T or FcRn binding buffer (67 nM phosphate, 0.1 M NaCl, 0.05% T, pH 6.0), bound receptor was visualized by addition of phosphatase substrate (1 mg/ml in diethanolamine buffer) (Sigma Aldrich). The plates were developed for 20-30 min before the 405 nm absorption values were recorded using a TECAN Sunrise spectrophotometer (Tecan).

[4] = target: T3, biotinylated truncated soluble human FcγRI (human, UniProt P12314 16-292, biotinylated); assay: ELISA: IgG coated at 10000-4.5 ng/ml, biotinylated truncated soluble human FcγRI 250 ng/ml pre-complexed with AP-streptavidin, absorbance 405 nm
T3 construct: extracellular domain; Bought; preformed complex with AP-streptavidin
T3 sequence (P12314 16-292): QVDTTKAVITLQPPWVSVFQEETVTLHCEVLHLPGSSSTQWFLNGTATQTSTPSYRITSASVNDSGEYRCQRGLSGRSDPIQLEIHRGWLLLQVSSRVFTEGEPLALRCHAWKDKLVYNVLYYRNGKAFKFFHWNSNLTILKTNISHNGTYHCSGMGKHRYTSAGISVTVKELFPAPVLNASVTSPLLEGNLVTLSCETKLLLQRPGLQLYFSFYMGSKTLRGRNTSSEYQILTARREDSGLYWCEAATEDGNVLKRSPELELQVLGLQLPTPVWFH
Experimental: as §2, with “96 well EIA/RIA plates (CorningCostar) were coated with 100 μl titrated amounts of IgG variants (10.000-4.5 ng/ml) diluted in PBS and incubated O/N at 4° C. Remaining” for “Remaining”, “above,” for “above with PBS/T or FcRn binding buffer (67 nM phosphate, 0.1 M NaCl, 0.05% T, pH 6.0),”, “15-20” for “20-30”

[5] = target: FcγRIIIa-V158 on Promega Jurkat effector cells (UniProt P08637 17-254, limits assumed); assay: cell-based or functional assay

Binder | EC50 (human CD37 [1]) [nM] | Ki (human CD37 [1]) [nM] | Ki(NNV009)/Ki(NNV020 var.) (human CD37 [2]) [fold] | EC50 (read off the curve) [3] [mg/L] | EC50 (read off the curve) [4] [mg/L] | average potency of the ADCC response (Example 13) [5] [nM] | efficacy (Emax) relative to NNV024, ADCC FcγRIIIa-158V reporter assay [5] [%]
NNV025 (antibody, human IgG1, kappa, Humanized IgG1 kappa; also called AH02871HC + AH02877LC; AH2871HC_2877LC) heavy: not shown light: DIQMTQSPSSLSASVGDRVTITCKASQDVSTAVDWYQQKPGKSPKLLINWASTRHTGVPSRFSGSGSGTDYTLTISSLQPEDFATYYCRQHYSTPFTFGQGTKLEIKRTVAAPSVFIFPPSDEQLKSGTASVVCLLNNFYPREAKVQWKVDNALQSGNSQESVTEQDSKDSTYSLSSTLTLSKADYEKHKVYACEVTHQGLSSPVTKSFNRGEC | 1.16 | 0.533 | 4.31 | – | – | – | –
AH02871 (antibody, human IgG1, kappa, V domains shown, Humanized IgG1 kappa; also called NNV026; NNV020 #1) VH: QVQLVQSGAEVVKPGASVKVSCKASGYSFTDYNMYWVKQAPGQRLEWMGYIDPYNGDTTYNQKFKGRVTITRDTSASTAYMELSSLRSEDTAVYYCARSPYGHYAMDYWGQGTLVTVSS VL: DIQMTQSPSSLSASVGDRVTITCKASQDVSTAVDWYQQKPGKAPKLLINWASTRHTGVPSRFSGSGSGTDYTLTISSMQPEDFATYYCRQHYSTPFTFGQGTKLEIKR | 1.17 | 0.539 | 4.27 | – | – | – | –
AH02886 (antibody, human IgG1, kappa, V domains shown, Humanized IgG1 kappa; also called NNV027; NNV020 #5) VH: QVQLVQSGAELKKPGASVKVSCKASGYSFTDYNMYWVKQAPGQRLEWMGYIDPYNGDTTYNQKFKGRVTLTVDTSASTAYMELSSLRSEDTAVYYCARSPYGHYAMDYWGQGTLVTVSS VL: DIQMTQSPSSLSTSVGDRVTITCKASQDVSTAVDWYQQKPGKAPKLLINWASTRHTGVPSRFSGSGSGTDYTLTISSLQPEDFATYYCRQHYSTPFTFGQGTKLEIKR | 1.16 | 0.535 | 4.3 | – | – | – | –
AH02877 (antibody, human IgG1, V domains shown, Full-length human IgG1 kappa; constant domains from NNV003; also called NNV020 #3) VH: QVQLVQSGAEVVKPGASVKVSCKASGYSFTDYNMYWVKQAPGQRLEWMGYIDPYNGDTTYNQKFKGRATLTVDTSASTAYIELSSLRSEDTAVYYCARSPYGHYAMDYWGQGTLVTVSS VL: DIQMTQSPSSLSASVGDRVTITCKASQDVSTAVDWYQQKPGKSPKLLINWASTRHTGVPSRFSGSGSGTDYTLTISSLQPEDFATYYCRQHYSTPFTFGQGTKLEIKR | 0.917 | 0.422 | 5.45 | – | – | – | –
AH02875 (antibody, human IgG1, V domains shown, Full-length human IgG1 kappa; also called NNV020 #2) VH: QIQLVQSGAELKKPGASVKVSCKASGYSFTDYNMYWVRQAPGQRLEWMGYIDPYNGDTTYNQKFKGRATITRDTSASTAYIELSSLRSEDTAVYYCARSPYGHYAMDYWGQGTLVTVSS VL: DIQMTQSPSSLSASVGDRVTITCKASQDVSTAVDWYQQKPGKSPKLLINWASTRHTGVPSRFSGSGSGTDYTLTISSMQPEDFATYYCRQHYSTPFTFGQGTKLEIKR | 1.15 | 0.528 | 4.36 | – | – | – | –
AH02879 (antibody, human IgG1, V domains shown, Full-length human IgG1 kappa; constant domains from NNV003; also called NNV020 #4) VH: QIQLVQSGAEVVKPGASVKVSCKASGYSFTDYNMYWVKQAPGQRLEWIGYIDPYNGDTTYNQKFKGRATLTRDTSASTAYMELSSLRSEDTAVYYCARSPYGHYAMDYWGQGTLVTVSS VL: DIQMTQSPSSLSTSVGDRVTITCKASQDVSTAVDWYQQKPGKSPKLLINWASTRHTGVPSRFSGSGSGTDYTLTISSMQPEDFATYYCRQHYSTPFTFGQGTKLEIKR | 0.959 | 0.441 | 5.22 | – | – | – | –
TCMC-NNV003 (antibody, human IgG1, kappa, TCMC chelator conjugate; sites not stated; TCMC chelator conjugate (GGG-TCMC); sites not stated, chains are those of NNV003; also called NNV003-TCMC; NNV003-GGG-TCMC) heavy: not shown light: DIVMTQSHKLLSTSVGDRVSITCKASQDVSTAVDWYQQKPGQSPKLLINWASTRHTGVPDRFTGSGSGTDYTLTISSMQAEDLALYYCRQHYSTPFTFGSGTKLEIKRTVAAPSVFIFPPSDEQLKSGTASVVCLLNNFYPREAKVQWKVDNALQSGNSQESVTEQDSKDSTYSLSSTLTLSKADYEKHKVYACEVTHQGLSSPVTKSFNRGEC | – | – | – | ~0.06 | ~0.4 | – | –
DuoHexaBody-CD37 (bispecific antibody, human IgG1, kappa) heavy 1: not shown light 1: YDMTQSPSTLSASVGDRVTITCQASQNIIDYLAWYQQKPGKAPKLLIHKASTTLASGVPSRFKGSGSGTEFTLTISSLQPDDFATYYCQQGYSNSNIDNTFGGGTKVEIKRTVAAPSVFIFPPSDEQLKSGTASVVCLLNNFYPREAKVQWKVDNALQSGNSQESVTEQDSKDSTYSLSSTLTLSKADYEKHKVYACEVTHQGLSSPVTKSFNRGEC heavy 2: not shown light 2: DVVMTQSPSTLSASVGDRVTITCQASQNIDSNLAWYQQKPGKAPKFLIYYASNLPFGVPSRFKGSGSGTEFTLTISSLQPDDFATYYCQSADVGSTYVAAFGGGTKVEIKRTVAAPSVFIFPPSDEQLKSGTASVVCLLNNFYPREAKVQWKVDNALQSGNSQESVTEQDSKDSTYSLSSTLTLSKADYEKHKVYACEVTHQGLSSPVTKSFNRGEC | – | – | – | – | – | 0.9 | 53
rituximab (antibody, human IgG1, kappa) chain 1: not shown chain 2: QIVLSQSPAILSASPGEKVTMTCRASSSVSYIHWFQQKPGSSPKPWIYATSNLASGVPVRFSGSGSGTSYSLTISRVEAEDAATYYCQQWTSNPPTFGGGTKLEIKRTVAAPSVFIFPPSDEQLKSGTASVVCLLNNFYPREAKVQWKVDNALQSGNSQESVTEQDSKDSTYSLSSTLTLSKADYEKHKVYACEVTHQGLSSPVTKSFNRGEC | – | – | – | – | – | 21.3 | 75
